Results reported in PMC3430215.

Target: Dunaliella salina Hsp90 (DsHsp90) (Dunaliella salina)
Experiment: SEC; Superdex G200 10/30 column on an AKTA system; 40 mM HEPES, 25 mM KCl, pH 7.5; apparent molecular weight from a standard curve of markers; single peak

stoichiometry N: 2
Substance: Dunaliella salina Hsp90 (DsHsp90) (natural protein)
